{"source": "paper PMC3045619", "about": "(Nucleic Acids Research, 2010)", "key": {"χ K124A": {"target": "χ K124A (E. coli, UniProt P28905 1-147, K124A)", "assay": "cross-linking"}, "[1]": {"target": "χ subunit of DNA polymerase III of E. coli, wild-type (E. coli, UniProt P28905 1-147)", "assay": "cross-linking"}}, "data": [{"binder": "WMDFDDDIPF", "note": "[SSB-Carb, peptide containing the last nine amino acids of EcoSSB]", "values": [{"measurement": "binding result", "setting": "χ K124A", "value": "binds"}, {"measurement": "binding result", "setting": "[1]", "value": "binds"}]}]}
